Numbered stars: 1 amine (or outer) side, 2 acyl side, 3 side chain; on linkers, the order of the positions; unused ones are H or OH. Bridge positions count the residues as written; N and C are the ends. Side chains are listed from the residue outwards. Ends that are not written are not given here. * marks the point of attachment. C20 diacid = O=C(O)CCCCCCCCCCCCCCCCCCC(=O)*; γGlu = O=C(O)[C@H](CCC(=O)[*:2])N[*:1]
T1: human calcitonin receptor (human, UniProt P30988 25-474)
T1 construct: whole, on cells; Assay used cell membranes, not intact cells; also called hCTR; hCT
T1 sequence (looked up): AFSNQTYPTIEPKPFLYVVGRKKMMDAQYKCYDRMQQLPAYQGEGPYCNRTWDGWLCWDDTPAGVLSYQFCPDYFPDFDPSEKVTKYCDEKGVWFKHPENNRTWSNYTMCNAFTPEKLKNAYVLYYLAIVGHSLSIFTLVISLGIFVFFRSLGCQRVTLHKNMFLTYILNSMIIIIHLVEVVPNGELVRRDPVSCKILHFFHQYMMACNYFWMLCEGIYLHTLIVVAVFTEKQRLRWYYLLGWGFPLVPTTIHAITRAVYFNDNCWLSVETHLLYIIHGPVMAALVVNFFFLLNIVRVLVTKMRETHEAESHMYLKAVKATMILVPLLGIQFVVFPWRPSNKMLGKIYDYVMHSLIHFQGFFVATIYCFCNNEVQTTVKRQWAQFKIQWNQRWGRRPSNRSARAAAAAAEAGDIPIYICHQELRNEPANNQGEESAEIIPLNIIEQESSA

T2: human amylin receptor (amylin 3(a) receptor: human calcitonin receptor with RAMP-3) (human, UniProt P30988 25-474; O60896 24-148)
T2 construct: whole, on cells; Assay used cell membranes of the Amylin 3(a)/CRE-luc BHK cells, not intact cells; also called hAmylin-R; hAmylinR
T2 sequence (looked up) 1: T1 sequence (looked up)
T2 sequence (looked up) 2: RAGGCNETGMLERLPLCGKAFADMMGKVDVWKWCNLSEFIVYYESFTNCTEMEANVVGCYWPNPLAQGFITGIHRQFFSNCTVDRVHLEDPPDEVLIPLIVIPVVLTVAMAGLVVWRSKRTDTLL

B1: N^ε1-[(4S)-4-carboxy-4-[[(4S)-4-carboxy-4-(19-carboxynonadecanoylamino)butanoyl]amino]butanoyl]-[Arg17,Pro21,Pro27,Pro31,Pro34,Arg35]-h-amylin (peptide)
peptide: K([γGlu-γGlu-C20 diacid])CNTATCATQRLANFLRHSSPNFGAIPSSTPVGPRTY-NH2
modifications: disulfide 2-7; N-terminus assumed
SMILES: CC[C@H](C)[C@H](NC(=O)[C@H](C)NC(=O)CNC(=O)[C@H](Cc1ccccc1)NC(=O)[C@H](CC(N)=O)NC(=O)[C@@H]1CCCN1C(=O)[C@H](CO)NC(=O)[C@H](CO)NC(=O)[C@H](Cc1c[nH]cn1)NC(=O)[C@H](CCCNC(=N)N)NC(=O)[C@H](CC(C)C)NC(=O)[C@H](Cc1ccccc1)NC(=O)[C@H](CC(N)=O)NC(=O)[C@H](C)NC(=O)[C@H](CC(C)C)NC(=O)[C@H](CCCNC(=N)N)NC(=O)[C@H](CCC(N)=O)NC(=O)[C@@H](NC(=O)[C@H](C)NC(=O)[C@@H]1CSSC[C@H](NC(=O)[C@@H](N)CCCCNC(=O)CC[C@H](NC(=O)CC[C@H](NC(=O)CCCCCCCCCCCCCCCCCCC(=O)O)C(=O)O)C(=O)O)C(=O)N[C@@H](CC(N)=O)C(=O)N[C@@H]([C@@H](C)O)C(=O)N[C@@H](C)C(=O)N[C@@H]([C@@H](C)O)C(=O)N1)[C@@H](C)O)C(=O)N1CCC[C@H]1C(=O)N[C@@H](CO)C(=O)N[C@@H](CO)C(=O)N[C@H](C(=O)N1CCC[C@H]1C(=O)N[C@H](C(=O)NCC(=O)N1CCC[C@H]1C(=O)N[C@@H](CCCNC(=N)N)C(=O)N[C@H](C(=O)N[C@@H](Cc1ccc(O)cc1)C(N)=O)[C@@H](C)O)C(C)C)[C@@H](C)O
B2: N^ε1-[(4S)-4-carboxy-4-[[(4S)-4-carboxy-4-(19-carboxynonadecanoylamino)butanoyl]amino]butanoyl]-[Asp14,Arg17,Pro21,Pro27,Pro34,Glu35]-h-amylin (peptide)
peptide: K([γGlu-γGlu-C20 diacid])CNTATCATQRLADFLRHSSPNFGAIPSSTNVGPETY-NH2
modifications: disulfide 2-7; N-terminus assumed
SMILES: CC[C@H](C)[C@H](NC(=O)[C@H](C)NC(=O)CNC(=O)[C@H](Cc1ccccc1)NC(=O)[C@H](CC(N)=O)NC(=O)[C@@H]1CCCN1C(=O)[C@H](CO)NC(=O)[C@H](CO)NC(=O)[C@H](Cc1c[nH]cn1)NC(=O)[C@H](CCCNC(=N)N)NC(=O)[C@H](CC(C)C)NC(=O)[C@H](Cc1ccccc1)NC(=O)[C@H](CC(=O)O)NC(=O)[C@H](C)NC(=O)[C@H](CC(C)C)NC(=O)[C@H](CCCNC(=N)N)NC(=O)[C@H](CCC(N)=O)NC(=O)[C@@H](NC(=O)[C@H](C)NC(=O)[C@@H]1CSSC[C@H](NC(=O)[C@@H](N)CCCCNC(=O)CC[C@H](NC(=O)CC[C@H](NC(=O)CCCCCCCCCCCCCCCCCCC(=O)O)C(=O)O)C(=O)O)C(=O)N[C@@H](CC(N)=O)C(=O)N[C@@H]([C@@H](C)O)C(=O)N[C@@H](C)C(=O)N[C@@H]([C@@H](C)O)C(=O)N1)[C@@H](C)O)C(=O)N1CCC[C@H]1C(=O)N[C@@H](CO)C(=O)N[C@@H](CO)C(=O)N[C@H](C(=O)N[C@@H](CC(N)=O)C(=O)N[C@H](C(=O)NCC(=O)N1CCC[C@H]1C(=O)N[C@@H](CCC(=O)O)C(=O)N[C@H](C(=O)N[C@@H](Cc1ccc(O)cc1)C(N)=O)[C@@H](C)O)C(C)C)[C@@H](C)O
B3: N^ε1-[(4S)-4-carboxy-4-[[(4S)-4-carboxy-4-(19-carboxynonadecanoylamino)butanoyl]amino]butanoyl]-[Glu14,Arg17,Pro21,Pro27,Arg34]-h-amylin (peptide)
peptide: K([γGlu-γGlu-C20 diacid])CNTATCATQRLAEFLRHSSPNFGAIPSSTNVGRNTY-NH2
modifications: disulfide 2-7; N-terminus assumed
SMILES: CC[C@H](C)[C@H](NC(=O)[C@H](C)NC(=O)CNC(=O)[C@H](Cc1ccccc1)NC(=O)[C@H](CC(N)=O)NC(=O)[C@@H]1CCCN1C(=O)[C@H](CO)NC(=O)[C@H](CO)NC(=O)[C@H](Cc1c[nH]cn1)NC(=O)[C@H](CCCNC(=N)N)NC(=O)[C@H](CC(C)C)NC(=O)[C@H](Cc1ccccc1)NC(=O)[C@H](CCC(=O)O)NC(=O)[C@H](C)NC(=O)[C@H](CC(C)C)NC(=O)[C@H](CCCNC(=N)N)NC(=O)[C@H](CCC(N)=O)NC(=O)[C@@H](NC(=O)[C@H](C)NC(=O)[C@@H]1CSSC[C@H](NC(=O)[C@@H](N)CCCCNC(=O)CC[C@H](NC(=O)CC[C@H](NC(=O)CCCCCCCCCCCCCCCCCCC(=O)O)C(=O)O)C(=O)O)C(=O)N[C@@H](CC(N)=O)C(=O)N[C@@H]([C@@H](C)O)C(=O)N[C@@H](C)C(=O)N[C@@H]([C@@H](C)O)C(=O)N1)[C@@H](C)O)C(=O)N1CCC[C@H]1C(=O)N[C@@H](CO)C(=O)N[C@@H](CO)C(=O)N[C@H](C(=O)N[C@@H](CC(N)=O)C(=O)N[C@H](C(=O)NCC(=O)N[C@@H](CCCNC(=N)N)C(=O)N[C@@H](CC(N)=O)C(=O)N[C@H](C(=O)N[C@@H](Cc1ccc(O)cc1)C(N)=O)[C@@H](C)O)C(C)C)[C@@H](C)O
notes: also called compound 88
B4: N^ε1-[(4S)-4-carboxy-4-[[(4S)-4-carboxy-4-(19-carboxynonadecanoylamino)butanoyl]amino]butanoyl]-[Glu14,Arg17,Pro21,Pro27,Arg35]-h-amylin (peptide)
peptide: K([γGlu-γGlu-C20 diacid])CNTATCATQRLAEFLRHSSPNFGAIPSSTNVGSRTY-NH2
modifications: disulfide 2-7; N-terminus assumed
SMILES: CC[C@H](C)[C@H](NC(=O)[C@H](C)NC(=O)CNC(=O)[C@H](Cc1ccccc1)NC(=O)[C@H](CC(N)=O)NC(=O)[C@@H]1CCCN1C(=O)[C@H](CO)NC(=O)[C@H](CO)NC(=O)[C@H](Cc1c[nH]cn1)NC(=O)[C@H](CCCNC(=N)N)NC(=O)[C@H](CC(C)C)NC(=O)[C@H](Cc1ccccc1)NC(=O)[C@H](CCC(=O)O)NC(=O)[C@H](C)NC(=O)[C@H](CC(C)C)NC(=O)[C@H](CCCNC(=N)N)NC(=O)[C@H](CCC(N)=O)NC(=O)[C@@H](NC(=O)[C@H](C)NC(=O)[C@@H]1CSSC[C@H](NC(=O)[C@@H](N)CCCCNC(=O)CC[C@H](NC(=O)CC[C@H](NC(=O)CCCCCCCCCCCCCCCCCCC(=O)O)C(=O)O)C(=O)O)C(=O)N[C@@H](CC(N)=O)C(=O)N[C@@H]([C@@H](C)O)C(=O)N[C@@H](C)C(=O)N[C@@H]([C@@H](C)O)C(=O)N1)[C@@H](C)O)C(=O)N1CCC[C@H]1C(=O)N[C@@H](CO)C(=O)N[C@@H](CO)C(=O)N[C@H](C(=O)N[C@@H](CC(N)=O)C(=O)N[C@H](C(=O)NCC(=O)N[C@@H](CO)C(=O)N[C@@H](CCCNC(=N)N)C(=O)N[C@H](C(=O)N[C@@H](Cc1ccc(O)cc1)C(N)=O)[C@@H](C)O)C(C)C)[C@@H](C)O
notes: also called compound 89
B5: N^ε1-[(4S)-4-carboxy-4-[[(4S)-4-carboxy-4-(19-carboxynonadecanoylamino)butanoyl]amino]butanoyl]-[Asp14,Arg17,Pro21,Pro27,Pro34,Arg35]-h-amylin (peptide)
peptide: K([γGlu-γGlu-C20 diacid])CNTATCATQRLADFLRHSSPNFGAIPSSTNVGPRTY-NH2
modifications: disulfide 2-7; N-terminus assumed
SMILES: CC[C@H](C)[C@H](NC(=O)[C@H](C)NC(=O)CNC(=O)[C@H](Cc1ccccc1)NC(=O)[C@H](CC(N)=O)NC(=O)[C@@H]1CCCN1C(=O)[C@H](CO)NC(=O)[C@H](CO)NC(=O)[C@H](Cc1c[nH]cn1)NC(=O)[C@H](CCCNC(=N)N)NC(=O)[C@H](CC(C)C)NC(=O)[C@H](Cc1ccccc1)NC(=O)[C@H](CC(=O)O)NC(=O)[C@H](C)NC(=O)[C@H](CC(C)C)NC(=O)[C@H](CCCNC(=N)N)NC(=O)[C@H](CCC(N)=O)NC(=O)[C@@H](NC(=O)[C@H](C)NC(=O)[C@@H]1CSSC[C@H](NC(=O)[C@@H](N)CCCCNC(=O)CC[C@H](NC(=O)CC[C@H](NC(=O)CCCCCCCCCCCCCCCCCCC(=O)O)C(=O)O)C(=O)O)C(=O)N[C@@H](CC(N)=O)C(=O)N[C@@H]([C@@H](C)O)C(=O)N[C@@H](C)C(=O)N[C@@H]([C@@H](C)O)C(=O)N1)[C@@H](C)O)C(=O)N1CCC[C@H]1C(=O)N[C@@H](CO)C(=O)N[C@@H](CO)C(=O)N[C@H](C(=O)N[C@@H](CC(N)=O)C(=O)N[C@H](C(=O)NCC(=O)N1CCC[C@H]1C(=O)N[C@@H](CCCNC(=N)N)C(=O)N[C@H](C(=O)N[C@@H](Cc1ccc(O)cc1)C(N)=O)[C@@H](C)O)C(C)C)[C@@H](C)O
notes: also called compound 130

target: T1, human calcitonin receptor; assay: SPA competition with 125I-calcitonin on membranes of BHK cells with human calcitonin receptor (Assay VII)
How it was run: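 BHK hCTR membranes 35 ng/μL + SPA beads 0.05 mg/well; buffer 50 mM Hepes pH 7.4, 1 mM CaCl2, 5 mM MgCl₂, 0.1% OA, 0.02% Tween20. 120 min, 25° C., shaking. Scintillation count; IC50 by one-site binding competition.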

Binder | IC50
B1 | 42.8 nM
B2 | 8.56 nM
B3 | 34.9 nM
B4 | 32.5 nM
B5 | 127 nM

target: T2, human amylin receptor (amylin 3(a) …); assay: SPA competition with 125I-rat amylin on membranes of BHK cells with human calcitonin receptor and RAMP-3 (Assay V)
How it was run: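 Cell membranes were prepared by homogenisation in Na-HEPES/EDTA buffer, pH 7.4, and stored at −80° C. They were then coupled to SPA beads at 35 ng/μL final and exposed to compounds in assay buffer containing CaCl2, MgCl₂, OA and Tween20. After 120 min at 25° C, plates were counted and IC₅₀ derived.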

Binder | IC50
B1 | 0.88 nM
B2 | 0.172 nM
B3 | 0.75 nM
B4 | 1.16 nM
B5 | 0.453 nM

target: T1, human calcitonin receptor; assay: ratio IC50 hCTR / IC50 hAmylin-R (reference: human amylin receptor), SPA competition assays
How it was run: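 IC₅₀ values were derived by one-site competition analysis of SPA counts. Cell membranes (35 ng/μL) with SPA beads were incubated with test compounds for 120 min at 25° C in Hepes buffer, pH 7.4, containing CaCl2, MgCl₂, OA and Tween20.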

Binder | Ratio hCT/hAmylin binding
B1 | 48.6
B2 | 49.8
B3 | 46.5
B4 | 28
B5 | 280

Reference: patent US20140087995A1 (published 2014)
